Source: US12492252

Molecular target: human GPC3 on cells (HepG2 cells expressing full length human GPC3; GPC3-transfected HEK293T cells) (human) (UniProt P51654)
Test: cell-based or functional assay

GC33 CAR (GC33 Benchmark)
IFN-gamma cytokine release (pg/mL), E:T 1:1: 8180 pg/mL
IFN-gamma cytokine release (pg/mL), E:T 1:3: 2760 pg/mL
IFN-gamma cytokine release (pg/mL), E:T 3:1: 15000 pg/mL
Specific lysis (%) of HepG2 cells, E:T 1:1: 9.78%
Specific lysis (%) of HepG2 cells, E:T 1:3: 4.57%
Specific lysis (%) of HepG2 cells, E:T 3:1: 17.2%
